From publication PMC8868134, “Molecular Determinants for OMF Selectivity in Tripartite RND Multidrug Efflux Systems” (Antibiotics, 2022)

What was measured:
[1] = molecular target: TolC (outer membrane factor of E. coli) (Escherichia coli) (UniProt P02930); experiment: BLI; OMF or MexB stabilised in biotinylated non-ionic amphipol (BNAPol) immobilised on streptavidin (SAX) biosensors, MexA as analyte (0-100 uM for OMFs, 0-200 uM for MexB); BLItz device, room temperature; 10 mM Tris/HCl pH 7.4, 100 mM NaCl, 0.01% NaN3, 0.05% DDM; Langmuir 1:1 fit
[2] = molecular target: OprM C-terminal deletion variant OprM_(Δ473-485) (Pseudomonas aeruginosa) (UniProt Q51487); experiment: as above
[3] = molecular target: OprM wild type (outer membrane factor) (Pseudomonas aeruginosa) (UniProt Q51487); experiment: as above
[4] = molecular target: OprN (outer membrane factor) (Pseudomonas aeruginosa) (UniProt Q9I0Y7); experiment: as above
[5] = molecular target: MexB (RND inner membrane transporter) (Pseudomonas aeruginosa) (UniProt P52002); experiment: as above
[6] = molecular target: MexA Q93R variant (Pseudomonas aeruginosa) (UniProt P52477); experiment: SEC + other: negative-staining EM; Superdex 200 PC 3.2/30 in 10 mM Tris/HCl pH 7.4, 100 mM NaCl, 0.01% NaN3, 0.05% DDM; peak fraction stained with uranyl acetate, single-particle average image
[7] = molecular target: T1, OprM wild type (outer membrane factor) (Pseudomonas aeruginosa, UniProt Q51487 18-485); experiment: BLI; OMF or MexB stabilised in biotinylated non-ionic amphipol (BNAPol) immobilised on streptavidin (SAX) biosensors, MexA as analyte (0-100 uM for OMFs, 0-200 uM for MexB); BLItz device, room temperature; 10 mM Tris/HCl pH 7.4, 100 mM NaCl, 0.01% NaN3, 0.05% DDM; Langmuir 1:1 fit; conditions: both partners purified
T1 construct: OprM, outer membrane factor of MexA-MexB-OprM, Pseudomonas aeruginosa; Stabilised in biotinylated amphipol (BNAPol) for BLI and in MSP1D1/POPC nanodiscs for the tripartite complexes; also called OprMwt; OMF; source: expressed and purified from bacteria
T1 sequence: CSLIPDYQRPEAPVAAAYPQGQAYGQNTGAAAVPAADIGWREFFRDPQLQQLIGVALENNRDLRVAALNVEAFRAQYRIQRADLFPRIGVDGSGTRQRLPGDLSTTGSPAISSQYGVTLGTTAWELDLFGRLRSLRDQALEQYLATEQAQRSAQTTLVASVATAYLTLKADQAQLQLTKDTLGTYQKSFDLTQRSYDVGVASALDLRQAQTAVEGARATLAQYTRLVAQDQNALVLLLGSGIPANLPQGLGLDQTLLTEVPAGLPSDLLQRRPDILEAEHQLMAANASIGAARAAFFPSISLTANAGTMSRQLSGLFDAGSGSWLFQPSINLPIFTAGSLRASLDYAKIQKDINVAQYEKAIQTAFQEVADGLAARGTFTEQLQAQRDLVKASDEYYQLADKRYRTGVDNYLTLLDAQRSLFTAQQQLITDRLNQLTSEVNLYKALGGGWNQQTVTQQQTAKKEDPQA

Molecule: MexA Q93R variant (from UniProt P52477 24-383) (natural protein)
- Kd [1]: 17.8 µM
- koff [1]: 0.00191 s⁻¹
- kon [1]: 108 M⁻¹ s⁻¹
- Kd [2]: 25.7 µM
- koff [2]: 0.00263 s⁻¹
- kon [2]: 102 M⁻¹ s⁻¹
- Kd [3]: 32.9 µM
- koff [3]: 0.00266 s⁻¹
- kon [3]: 81 M⁻¹ s⁻¹
- Kd [4]: 26.9 µM
- koff [4]: 0.00238 s⁻¹
- kon [4]: 88 M⁻¹ s⁻¹
- Kd [5]: 17.4 µM
- koff [5]: 0.003 s⁻¹
- kon [5]: 173 M⁻¹ s⁻¹
- stoichiometry N [6]: 6

Molecule: MexA wild type (periplasmic adaptor protein of MexA-MexB-OprM) (from UniProt P52477 24-383) (natural protein)
- Kd [1]: 45.8 µM
- koff [1]: 0.0058 s⁻¹
- kon [1]: 127 M⁻¹ s⁻¹
- Kd [2]: 44 µM
- koff [2]: 0.00458 s⁻¹
- kon [2]: 103 M⁻¹ s⁻¹
- Kd [4]: 20 µM
- koff [4]: 0.00358 s⁻¹
- kon [4]: 177 M⁻¹ s⁻¹

B1: MexA wild type (periplasmic adaptor protein of MexA-MexB-OprM) (natural protein)
chain: CGKSEAPPPAQTPEVGIVTLEAQTVTLNTELPGRTNAFRIAEVRPQVNGIILKRLFKEGSDVKAGQQLYQIDPATYEADYQSAQANLASTQEQAQRYKLLVADQAVSKQQYADANAAYLQSKAAVEQARINLRYTKVLSPISGRIGRSAVTEGALVTNGQANAMATVQQLDPIYVDVTQPSTALLRLRRELASGQLERAGDNAAKVSLKLEDGSQYPLEGRLEFSEVSVDEGTGSVTIRAVFPNPNNELLPGMFVHAQLQEGVKQKAILAPQQGVTRDLKGQATALVVNAQNKVELRVIKADRVIGDKWLVTEGLNAGDKIITEGLQFVQPGVEVKTVPAKNVASAQKADAAPAKTDSKG
notes: MexA, periplasmic adaptor protein of the MexA-MexB-OprM efflux system, Pseudomonas aeruginosa; Kept in 0.05% DDM; also called MexAwt; PAP; source: expressed and purified from bacteria
- Kd [7]: 12 µM
- koff [7]: 0.00215 s⁻¹
- kon [7]: 180 M⁻¹ s⁻¹
